Paper PMC2494995, “The central proline rich region of POB1/REPS2 plays a regulatory role in epidermal growth factor receptor endocytosis by binding to 14-3-3 and SH3 domain-containing proteins” (BMC Biochemistry, 2008)

Experiments:
[1] = target: POB1 phospho-peptide 347KTHSRASpSLDLNKVF361 (human); test: peptide or protein array; SPOT peptides on a cellulose membrane; GST fusion proteins (10 micrograms/ml) in PBS/BSA 5%; anti-GST antibody, peroxidase labeled secondary antibody, chemiluminescence in arbitrary units
[2] = target: POB1 fifteenmer peptide 338-352 with Pro345 replaced by alanine (human); test: as above
[3] = target: POB1 fifteenmer peptide 338-352 with Pro343 replaced by alanine (human); test: as above
[4] = target: GST-SH3 carboxy-terminal of Grb2; test: pull-down; GST or GST fusion proteins (100 μg) adsorbed to glutathione-sepharose 4B beads, two hours at 4°C with 1 mg of HEK293 cellular extract in JS lysis buffer (50 mM Hepes, 150 mM NaCl, 1% Triton-X100); washed three times in ice-cold PBS; Western blot
[5] = target: T1, GST-SH3 of Amphiphysin II (UniProt O00499 520-593); test: as above
T1 construct: Amphiphysin II, SH3 domain; cloned into the SalI and BglII sites of pYEX (modified pGEX-2TK); also called AmphIISH3; GST-Amphiphysin II SH3; source: expressed in bacteria; on glutathione-Sepharose 4B beads (pull-down) or purified (peptide arrays)
T1 sequence (looked up): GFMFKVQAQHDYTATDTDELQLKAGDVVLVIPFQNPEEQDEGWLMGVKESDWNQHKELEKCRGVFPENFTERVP

14-3-3 sigma = 14-3-3 sigma (UniProt P31947); test: SPOT peptide array, GST-14-3-3 sigma overlay
[6] = target: POB1 fifteenmer peptide 338-352 with proline 339 replaced by alanine (human); test: peptide or protein array; SPOT peptides on a cellulose membrane; GST fusion proteins (10 micrograms/ml) in PBS/BSA 5%; anti-GST antibody, peroxidase labeled secondary antibody, chemiluminescence in arbitrary units
[7] = target: T1, GST-SH3 of Amphiphysin II; test: as above; settings: both partners purified

## GST-14-3-3 sigma (from UniProt P31947 1-248) (natural protein)
[1]
  signal intensity (arbitrary units (a.u.)): 8500

## GST-SH3 carboxy-terminal of Grb2 (domain or fragment)
[2]
  percent of the binding to the unmutated peptide: 30%
[3]
  percent of the binding to the unmutated peptide: 30%

## Myc-tagged POB1 (full length) (natural protein)
[4]
  percent of the input bound: 4%
[5]
  percent of the input bound: 25%

## POB1/REPS2 15-mer centred on Ser322 (from UniProt Q8NFH8) pS322 peptide (No. 196)
14-3-3 sigma; reference: unphosphorylated peptide (No. 232), sites S322
  other: spot intensity: none in both; reference 1400

## POB1/REPS2 347-361 (from UniProt Q8NFH8) pS354 peptide
14-3-3 sigma; reference: unphosphorylated peptide (No. 238), sites S354
  other: spot intensity: gained; reference 991

B1: GST-SH3 of Amphiphysin II (domain or fragment)
chain: GFMFKVQAQHDYTATDTDELQLKAGDVVLVIPFQNPEEQDEGWLMGVKESDWNQHKELEKCRGVFPENFTERVP
[6]
  percent of the binding to the unmutated peptide: 31%

B2: POB1 fifteenmer peptide 338PPTPPPRPQKTHSRA352 (peptide)
peptide: PPTPPPRPQKTHSRA
notes: numbers count on: isoform 2, Q8NFH8-2; source: SPOT synthesis on a cellulose membrane
[7]
  binding result: binds
